Test results published in patent US20170106012A1.

Target: T1, Bone morphogenetic protein 2 (BMP-2), recombinant human (Homo sapiens) (UniProt P12643)
T1 sequence: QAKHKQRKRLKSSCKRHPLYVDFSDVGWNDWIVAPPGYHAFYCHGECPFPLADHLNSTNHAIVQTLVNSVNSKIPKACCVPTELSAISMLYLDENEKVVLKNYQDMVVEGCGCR
Assay: cell-based or functional assay

- inhibition of BMP-2-induced ALP activity in C2C12 cells; noggin at 30 ng/ml, BMP-2 at 100 ng/ml, no GAG: 14 percent
- inhibition of BMP-2-induced ALP activity in C2C12 cells; noggin at 30 ng/ml, in the presence of HS+ve: 2 percent
- inhibition of BMP-2-induced ALP activity in C2C12 cells; noggin at 30 ng/ml, in the presence of HSpm: 4 percent
- inhibition of BMP-2-induced ALP activity in C2C12 cells; noggin at 100 ng/mL, in the presence of HS-ve: 75 percent
- inhibition of BMP-2-induced ALP activity in C2C12 cells; noggin at 100 ng/ml, BMP-2 at 100 ng/ml, no GAG: 95 percent
- inhibition of BMP-2-induced ALP activity in C2C12 cells; noggin at 100 ng/ml, in the presence of HS+ve: 43 percent
- inhibition of BMP-2-induced ALP activity in C2C12 cells; noggin at 100 ng/ml, in the presence of HSpm: 62 percent
B1: noggin (protein, UniProt Q13253 28-232, looked up, species assumed)
Noggin: QHYLHIRPAPSDNLPLVDLIEHPDPIFDPKEKDLNETLLRSLLGGHYDPGFMATSPPEDRPGGGGGAAGGAEDLAELDQLLRQRPSGAMPSEIKGLEFSEGLAQGKKQRLSKKLRRKLQMWLWSQTFCPVLYAWNDLGSRFWPRYVKVGSCFSKRSCSVPEGMVCKPSKSVHLTVLRWRCQRRGGQRCGWIPIQYPIISECKCSC
